From doi:10.1101/2021.02.26.432832

Target: T1, Ioc4 PWWP domain (Saccharomyces cerevisiae) (UniProt Q04213)
T1 sequence: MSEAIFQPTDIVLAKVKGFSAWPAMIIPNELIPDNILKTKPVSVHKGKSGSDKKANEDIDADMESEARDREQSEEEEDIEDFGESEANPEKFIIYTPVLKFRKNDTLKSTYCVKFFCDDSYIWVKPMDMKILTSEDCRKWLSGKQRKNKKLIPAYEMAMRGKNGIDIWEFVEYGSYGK
Experiment: EMSA
Conditions: H3K36me3; H3 tail 1-44 ligated to H3T45C; Xenopus laevis histones

NCP H3K36me3
binding signal (fold higher affinity vs dsDNA): 6
